Experimental findings from paper PMC8830441, “Interaction of TLK1 and AKTIP as a Potential Regulator of AKT Activation in Castration-Resistant Prostate Cancer Progression” (Pathophysiology, 2021) are described below.

The target of the assay is T1, Full-length, wild-type recombinant His-tagged TLK1B (human, UniProt Q9UKI8-3 1-549).
T1 construct: wild-type, full-length TLK1B; also called His-TLK1B; recombinant TLK1; source: bacterial expression plasmid, recombinant, purified according to the published literature
T1 sequence (looked up): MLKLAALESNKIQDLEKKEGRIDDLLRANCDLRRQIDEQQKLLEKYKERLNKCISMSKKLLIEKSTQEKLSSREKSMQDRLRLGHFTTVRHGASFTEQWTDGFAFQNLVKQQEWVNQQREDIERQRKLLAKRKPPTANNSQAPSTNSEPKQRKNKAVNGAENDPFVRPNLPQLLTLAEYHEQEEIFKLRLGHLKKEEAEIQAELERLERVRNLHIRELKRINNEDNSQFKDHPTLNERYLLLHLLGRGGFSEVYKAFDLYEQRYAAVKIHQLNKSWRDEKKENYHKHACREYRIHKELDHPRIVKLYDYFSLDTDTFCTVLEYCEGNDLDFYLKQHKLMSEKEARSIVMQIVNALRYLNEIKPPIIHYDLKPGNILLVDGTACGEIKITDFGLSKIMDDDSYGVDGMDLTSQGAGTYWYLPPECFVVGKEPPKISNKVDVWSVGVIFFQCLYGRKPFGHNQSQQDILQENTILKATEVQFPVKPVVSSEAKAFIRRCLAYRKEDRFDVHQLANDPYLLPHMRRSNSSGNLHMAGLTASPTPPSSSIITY
Nature of the assay: pull-down; His-TLK1B and GST-AKTIP, 1 µg of each, incubated on ice 30 min, isolated on Ni-NTA agarose beads, washed with cell lysis buffer, WB for AKTIP. Conditions: both partners purified.

B1: wild-type full-length human GST-AKTIP (natural protein, UniProt Q9H8T0 1-292, looked up)
chain: MNPFWSMSTSSVRKRSEGEEKTLTGDVKTSPPRTAPKKQLPSIPKNALPITKPTSPAPAAQSTNGTHASYGPFYLEYSLLAEFTLVVKQKLPGVYVQPSYRSALMWFGVIFIRHGLYQDGVFKFTVYIPDNYPDGDCPRLVFDIPVFHPLVDPTSGELDVKRAFAKWRRNHNHIWQVLMYARRVFYKIDTASPLNPEAAVLYEKDIQLFKSKVVDSVKVCTARLFDQPKIEDPYAISFSPWNPSVHDEAREKMLTQKKPEEQHNKSVHVAGLSWVKPGSVQPFSKEEKTVAT
notes: also called GST-tagged AKTIP; source: bacterial expression plasmid, recombinant, purified from bacteria according to the published literature
Regarding B1, the binding result is reported as “binds”.
